Here are results for 10 molecules from patent US7745575B1 (Cellpep Pharma Inc., priority 2004, dated 2010).

For orientation: IC50 means the concentration that inhibits the measured activity by half. Lower therefore signals higher potency. Usually LD50 stands for the dose expected to kill half of the subjects tested. Low values mean greater toxicity, high ones lower toxicity.

The target of series [1] is T1, hKv3.2 (Homo sapiens, UniProt Q96PR1).
T1 sequence (Q96PR1 1-638): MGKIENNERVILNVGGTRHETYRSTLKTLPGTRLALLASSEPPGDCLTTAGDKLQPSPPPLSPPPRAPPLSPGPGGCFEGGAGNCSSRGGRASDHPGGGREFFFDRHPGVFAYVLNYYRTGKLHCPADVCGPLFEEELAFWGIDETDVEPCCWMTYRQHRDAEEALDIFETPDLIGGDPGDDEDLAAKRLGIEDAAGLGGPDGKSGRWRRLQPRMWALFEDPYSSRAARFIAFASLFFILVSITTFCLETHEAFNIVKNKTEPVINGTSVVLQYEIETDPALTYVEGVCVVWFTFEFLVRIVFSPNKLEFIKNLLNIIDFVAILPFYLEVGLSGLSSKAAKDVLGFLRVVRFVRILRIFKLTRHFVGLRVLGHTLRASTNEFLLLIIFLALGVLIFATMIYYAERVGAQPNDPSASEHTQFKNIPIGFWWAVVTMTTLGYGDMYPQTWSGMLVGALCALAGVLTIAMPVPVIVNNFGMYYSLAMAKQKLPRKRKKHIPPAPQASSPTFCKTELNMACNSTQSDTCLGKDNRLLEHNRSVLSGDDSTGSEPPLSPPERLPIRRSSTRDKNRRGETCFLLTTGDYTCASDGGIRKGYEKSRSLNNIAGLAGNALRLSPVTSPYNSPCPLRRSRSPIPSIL
As to the kind of experiment: patch-clamp whole-cell recording, K+ current block. The class given is cell-based. Here is the method:
(§1) Electrophysiological experiments were carried out at 22-24° C. using the patch-clamp whole-cell recording mode. Cells were bathed with mammalian Ringer's solution (in mM): 160 NaCl, 4.5 KCl, 2 CaCl2, 1 MgCl2, and 10 HEPES (pH 7.4 with NaOH), with an osmolarity of 290-320 mOsm. […] A syringe-driven perfusion device was used to exchange the external recording bath solution. Two internal pipette solutions were used, one for measuring voltage-gated K^+ currents that contained (in mM): 155 KF, 2 MgCl2, 10 HEPES, and 10 EGTA (pH 7.2 with KOH), with an osmolarity of 290-320 mOsm and another for measuring Ca^2+-activated K^+ currents that contained (in mM): 135 K-aspartate, 8.7 CaCl2, 2 MgCl2, 10 EGTA, 10 HEPES (pH 7.2 with KOH), with an osmolarity of 290-320 mOsm. A free [Ca^2+]i of 1 μM was calculated. All currents through voltage-gated K^+ channels were elicited by 200 ms depolarising voltage steps from −80 to +40 mV. Potassium currents through KCa1.1, KCa2.1 and KCa3.1 were elicited by 1 μM internal [Ca^2+]i and 400 ms voltage ramps from −120 to 0 mV (for KCa3.1 channel and KCa1.1 channel) and from −120 to +40 mV (for KCa2.1 channel). Electrodes were pulled from glass capillaries (Science Products, Germany), and fire-polished to resistances of 2.5-5 MΩ. Membrane currents were measured with an EPC-9 or EPC-10 patch-clamp amplifier (HEKA Elektronik, Lambrecht, Germany) interfaced to a Macintosh computer running acquisition and analysis software (Pulse and PulseFit). When voltage-gated K^+ currents were measured, the capacitive and leak currents were subtracted using a P/10 procedure. Series resistance compensation (>80%) was used for currents above 2 nA. The holding potential was −80 mV in all experiments.

The nature of series [2]: toxicity in vivo, LD50 after intracerebroventricular injection. The following applies: mouse, icv or intrathecal, 20 g C57/BL6 mice. Here is the method: Groups of six to eight mice per dose were injected with 5 μl peptide solution containing 0.1% (w/v) bovine serum albumin and 0.9% (w/v) NaCl. The LD50 values are set out in Table 5.
Series [3] concerns the target mKv1.3 (Mus musculus, UniProt P16390). Kind of series: patch-clamp whole-cell recording, K+ current block. It is filed as cell-based. Here is the method:
as §1
For orientation: In patch-clamp work, channel activity is measured electrically.

Series [4] deals with Lewis rats immunized with spinal cord homogenate. As to the kind of experiment: treatment of chronic relapsing EAE, osmotic pump IP. The following applies: MTx 50 nM. The class given is in vivo. Here is the method:
Each rat received 200 μl of emulsion sc, divided in the rear footpads, on day 0. Eight days later, as their body weight decreased, a precursor sign for clinical EAE, an osmotic pump was implanted IP. The pump delivered drugs at 1 μl/h for 8 days. They were filled with the peptide blockers, dissolved in Na Cl 0.15 M containing 2% Lewis serum, as vehicle.
Clinical evaluation. The severity of the disease was scored on a scale of 0 to 6, with 0.5 points for intermediate clinical findings (0: no clinical signs; 1.0: limp tail; 2.0: mild paraparesis and ataxia; 3.0: moderate paraparesis; 4.0: complete hind limb paralysis; 5.0: paralysis+incontinence; 5.5: tetraplegia; 6.0: moribund or death). Rats were weighed every day. Rats showing no clinical signs of EAE and no weight loss were excluded from the studies. The beneficial effects of K^+ blockers on EAE were evaluated by a reduction in clinical severity and in duration of the disease and in number of relapses compared with those of rats treated with the vehicle only, 0.15 M NaCl.
Data analysis. Statistical analysis was conducted using the Mann-Whitney U test. Mean differences between groups were considered significant at values of P<0.05.

Series [5] has as its target T2, hKv3.2 (human (only by the printed prefix h), UniProt Q96PR1).
T2 sequence: T1 sequence (Q96PR1 1-638)
Kind of series: cell-based or functional assay.

In another series the target is hKv1.2 (human (only by the printed prefix h), UniProt P16389). As to the kind of experiment: cell-based or functional assay.
The target of another series is mKv1.1 (mouse (only by the printed prefix m), UniProt P16388). Kind of series: cell-based or functional assay.
For series [6], the target named is mKv1.3 (mouse (only by the printed prefix m), UniProt P16390). As to the kind of experiment: cell-based or functional assay.
For the next series, the target named is hIK1 (human (only by the printed prefix h), UniProt O15554). Kind of series: cell-based or functional assay.

Residue numbers refer to the chain shown, from its start. Where “and” joins values, the source holds several entries; their conditions need not be identical. Identical values can stand only once. Entries after “also recorded” stand apart in the source; their conditions may differ. Bridge positions count the residues as written; N and C are the ends. Ends that are not written are not given here. Peptide text beside a SMILES is read from it. Where only a bound is given, the exact number is not on record here.

Sequence of mKv1.3 (Mus musculus, UniProt P16390) (P16390 whole entry): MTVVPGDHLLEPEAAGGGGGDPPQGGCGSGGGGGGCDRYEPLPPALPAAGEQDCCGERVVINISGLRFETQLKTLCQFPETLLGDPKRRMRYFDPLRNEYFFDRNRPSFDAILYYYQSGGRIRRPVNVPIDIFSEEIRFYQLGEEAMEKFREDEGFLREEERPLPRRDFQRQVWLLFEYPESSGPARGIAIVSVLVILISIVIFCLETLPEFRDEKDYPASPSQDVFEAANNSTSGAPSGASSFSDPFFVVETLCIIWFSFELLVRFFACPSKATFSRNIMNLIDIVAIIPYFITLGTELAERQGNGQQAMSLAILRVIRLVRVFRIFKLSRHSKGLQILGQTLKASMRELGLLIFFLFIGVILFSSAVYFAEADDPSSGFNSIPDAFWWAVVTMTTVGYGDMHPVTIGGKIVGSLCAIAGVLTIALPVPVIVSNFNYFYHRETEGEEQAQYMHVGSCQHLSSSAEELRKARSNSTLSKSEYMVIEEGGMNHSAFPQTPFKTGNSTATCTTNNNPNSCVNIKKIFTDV

As to `CC[C@H](C)[C@@H]1NC(=O)[C@H](CCCCN)NC(=O)[C@@H](NC(=O)[C@H](CCCCN)NC(=O)[C@@H](NC(=O)[C@H](CC(N)=O)NC(=O)[C@@H](NC(=O)[C@@H](NC(=O)[C@@H](NC(=O)CNC(C)=O)C(C)C)[C@@H](C)CC)[C@@H](C)CC)C(C)C)CSSC[C@@H]2NC(=O)[C@H](CCCCN)NC(=O)CNC(=O)[C@H](Cc3ccccc3)NC(=O)[C@H](CCCNC(=N)N)NC(=O)[C@H](CCSC)NC(=O)CNC(=O)[C@H](C)NC(=O)[C@H](CCCCN)NC(=O)[C@H](CCCCN)NC(=O)[C@@H]3CSSC[C@@H](C(=O)N[C@H](C(=O)N4CCC[C@H]4C(=O)N[C@@H](CCCCN)C(N)=O)[C@@H](C)O)NC(=O)[C@H](Cc4c[nH]cn4)NC(=O)[C@H](CSSC[C@H](NC(=O)[C@H](CCC(N)=O)NC(=O)[C@H](CCCNC(=N)N)NC(=O)[C@H](CO)NC1=O)C(=O)N[C@@H](CC(C)C)C(=O)N[C@@H](CCC(=O)O)C(=O)N1CCC[C@H]1C(=O)N3)NC(=O)[C@H](CCCCN)NC(=O)CNC(=O)[C@H](CC(N)=O)NC(=O)[C@H](CCSC)NC2=O` [Ac-OsK1-NH2], at hKv3.2 [1], the IC50 is over 1000 nM. Besides, in series [2], the LD50 came out at 0.011 mg/kg.
In turn, `CC[C@H](C)[C@@H]1NC(=O)[C@H](CCCCN)NC(=O)[C@@H](NC(=O)[C@H](CCCCN)NC(=O)[C@@H](NC(=O)[C@H](CC(N)=O)NC(=O)[C@@H](NC(=O)[C@@H](NC(=O)[C@@H](NC(=O)CN)C(C)C)[C@@H](C)CC)[C@@H](C)CC)C(C)C)CSSC[C@@H]2NC(=O)[C@H](CCCCN)NC(=O)CNC(=O)[C@H](Cc3ccccc3)NC(=O)[C@H](CCCNC(=N)N)NC(=O)[C@H](CCSC)NC(=O)CNC(=O)[C@H](C)NC(=O)[C@H](CCCCN)NC(=O)[C@H](CCCCN)NC(=O)[C@@H]3CSSC[C@@H](C(=O)N[C@H](C(=O)N4CCC[C@H]4C(=O)N[C@@H](CCCCN)C(=O)O)[C@@H](C)O)NC(=O)[C@H](Cc4c[nH]cn4)NC(=O)[C@H](CSSC[C@H](NC(=O)[C@H](CCC(N)=O)NC(=O)[C@H](CCCNC(=N)N)NC(=O)[C@H](CO)NC1=O)C(=O)N[C@@H](CC(C)C)C(=O)N[C@@H](CCCCN)C(=O)N1CCC[C@H]1C(=O)N3)NC(=O)[C@H](CCCCN)NC(=O)CNC(=O)[C@H](CC(N)=O)NC(=O)[C@H](CCSC)NC2=O` [[K^16]-OsK1] (H-GVIINVKCKISRQCLKPCKKAGMRFGKCMNGKCHCTPK-OH; disulfide 8-28, 14-33, 18-35) registered an IC50 on mKv1.3 [3] of 0.067 ± 0.006 nM. In [2], this molecule showed an LD50 of 0.003 mg/kg.
The molecule “VSCTGSKDCYAPCRKQTGCPNA-KCINK-SCKCYGC [MTx]” gave an Incid in series [4] of 100%. The “Max Clin Sc, Mean ± SD” value in series [4] (group mean, scale 0 to 6) amounted to 2.2 ± 1.5. Besides, in series [4] (individual rats), the “Duration (days), first episode of EAE” value was “chronic (3×) and 11 days”; the “Onset (day), first episode of EAE” value is given as “d11 day; also recorded: d8 day; also recorded: d7 day”. The “Max Clin Sc” value in series [4] (individual rats, scale 0 to 6) is 4 and 1 (2×) and 3.
`CC[C@H](C)[C@@H]1NC(=O)[C@H](CCCCN)NC(=O)[C@@H](NC(=O)[C@H](CCCCN)NC(=O)[C@@H](NC(=O)[C@H](CC(N)=O)NC(=O)[C@@H](NC(=O)[C@@H](NC(=O)[C@@H](NC(=O)CN)C(C)C)[C@@H](C)CC)[C@@H](C)CC)C(C)C)CSSC[C@@H]2NC(=O)[C@H](CCCCN)NC(=O)CNC(=O)[C@H](Cc3ccccc3)NC(=O)[C@H](CCCNC(=N)N)NC(=O)[C@H](CCSC)NC(=O)CNC(=O)[C@H](C)NC(=O)[C@H](CC(=O)O)NC(=O)[C@H](CCCCN)NC(=O)[C@@H]3CSSC[C@@H](C(=O)O)NC(=O)[C@H](Cc4c[nH]cn4)NC(=O)[C@H](CSSC[C@H](NC(=O)[C@H](CCC(N)=O)NC(=O)[C@H](CCCNC(=N)N)NC(=O)[C@H](CO)NC1=O)C(=O)N[C@@H](CC(C)C)C(=O)N[C@@H](CCCCN)C(=O)N1CCC[C@H]1C(=O)N3)NC(=O)[C@H](CCCCN)NC(=O)CNC(=O)[C@H](CC(N)=O)NC(=O)[C@H](CCSC)NC2=O` (H-GVIINVKCKISRQCLKPCKDAGMRFGKCMNGKCHC-OH; disulfide 8-28, 14-33, 18-35) came in with an LD50 in series [2] of 0.8 mg/kg.

B1: Ac-OsK1-NH2 (peptide)
peptide: Ac-GVIINVKCKISRQCLEPCKKAGMRFGKCMNGKCHCTPK-NH2
modifications: ends and bridges not checked
On to B1, for which the ID50 with hKv3.2 [5] was over 1000 nM; with hKv1.2 it was about 1300 nM.

B2: [Δ^1]-OsK1-NH2 (peptide)
peptide: VIINVKCKISRQCLEPCKKAGMRFGKCMNGKCHCTPK-NH2
modifications: ends and bridges not checked
On to B2, for which the ID50 in the series with mKv1.1 was 2.06 nM; with mKv1.3 [6], 0.038 nM; in the series with hKv3.2 [5], over 1000 nM; with hKv1.2 it was 85 nM; in the series with hIK1, 620 nM.

B3: [K^16]-OsK1 (peptide)
peptide: GVIINVKCKISRQCLKPCKKAGMRFGKCMNGKCHCTPK
modifications: ends and bridges not checked; cysteine pairing not given here
With B3, the ID50 with mKv1.1 turned out to be 0.63 nM; with mKv1.3 [6] it was 0.067 nM; with hKv1.2 it was 5.23 nM; in the series with hIK1, 151 nM.

B4: OsK1 (peptide)
peptide: B3 peptide with K16E
As to B4, the ID50 in the series with hKv3.2 [5] was over 1000 nM.

B5: [D^20]-OsK1 (peptide)
peptide: B3 peptide with K16E, K20D
modifications: ends and bridges not checked; cysteine pairing not given here
B5: the ID50 with mKv1.1 was 2.95 nM; with mKv1.3 [6], 0.037 nM; with hKv1.2, 77.8 nM; with hIK1, 716 nM.

B6: OsK1-NH2 (peptide)
peptide: GVIINVKCKISRQCLEPCKKAGMRFGKCMNGKCHCTPK-NH2
modifications: ends and bridges not checked
As to B6, the figures for the ID50 in the series with hKv3.2 [5] and in the series with hKv1.2 were over 1000 nM and 26 nM, respectively.
